Measurements from patent publication US10017787B2, “Production of alkenes from 3-hydroxycarboxylic acids via 3-hydroxycarboxyl-nucleotidylic acids” (Global Bioenergies, priority 2013, dated 2018).

Key:
(R,S)-3-hydroxybutyrate [1] = experiment: Adenylation of 3-hydroxybutyrate with ATP or ADP as co-substrates, spectrophotometric assay; type: biochemical; conditions: 5 mM (R,S)-3-hydroxybutyrate, 0-3.2 mM ATP or ADP, 0.1 mg/ml enzyme (FIGS. 15 and 16)
Method: Spectrophotometric assay was performed according to the procedure described in Example 2. The specificity of acyl-CoA synthase from M. algicola and AMP-dependent synthetase/ligase from Burkholderia sp. with respect to co-substrates was analyzed. Standard reaction contained:
0.1 mg/ml of purified enzyme
2-amino-6-mercapto-7-methylpurine ribonucleoside (MESG), purine nucleoside phosphorylase (PNP) and inorganic pyrophosphatase were added to the reaction mix according to the procedure described in the EnzCheck® Pyrophosphatase Assay Kit. A reaction mixture without inorganic pyrophosphatase was used for assays with ADP as co-substrate. Control assays were performed in which either no enzyme was added, or no 3-hydroxybutyrate was added. Each assay was started with the addition of co-substrate (ATP or ADP). Each sample was continuously monitored for the increase of 2-amino-6-mercapto-7-methylpurine at 360 nm on a SpectraMax Plus 384 UV/Vis Microplate Reader (Molecular Devices).

[2] = substrate: CC(O)CC(=O)O; experiment: purified protein, by the assay type; conditions: other: 0-10 mM 3-hydroxycarboxylate, 2 mM ATP, 0.1 mg/ml enzyme, pH 7.5
[3] = substrate: CC(C)(O)CC(=O)O; experiment: purified protein, by the assay type; conditions: other: 0-10 mM 3-hydroxycarboxylate, 2 mM ATP, 0.1 mg/ml enzyme, pH 7.5
[4] = substrate: C=CC(O)CC(=O)O; experiment: Kinetic parameters of adenylation of 3-hydroxycarboxylates, continuous spectrophotometric diphosphate release assay; type: biochemical, Marinobacter aquaeolei; conditions: other: 0-10 mM 3-hydroxycarboxylate, 2 mM ATP, 0.1 mg/ml enzyme, pH 7.5
Method: (§1) The genes coding for the adenylate-forming enzymes were synthesized and the corresponding enzymes were further produced according to the procedure described in Example 1. 3-hydroxypropionic acid (TCI) stock solution was prepared in water with the pH adjusted to 7.5 with 1 M NaOH. The release of diphosphate which is associated with 3-hydroxypropionyl-adenylate formation from 3-hydroxypropionate was quantified using the EnzCheck® Pyrophosphatase Assay Kit (E6645, Life Technologies).
(§2) In this assay, diphosphate was hydrolyzed to inorganic phosphate by inorganic pyrophosphatase and phosphate production coupled to phosphorolysis of the 2-amino-6-mercapto-7-methylpurine ribonucleoside (MESG), catalyzed by the enzyme purine nucleoside phosphorylase (PNP). The chromophoric product, 2-amino-6-mercapto-7-methylpurine, was monitored by absorbance at 360 nm (FIG. 9).
(§3) Kinetic parameters were determined by using the spectrophotometric assay described in Example 2. Reaction mixture for the assay of adenylation activity contained:
(§4) 0-10 mM 3-hydroxycarboxylate
(§5) 0.1 mg/ml of purified AMP-dependent synthetase/ligase from M. aquaeolei
(§6) 2-amino-6-mercapto-7-methylpurine ribonucleoside (MESG), purine nucleoside phosphorylase (PNP) and inorganic pyrophosphatase were added to the reaction mix according to the procedure described in the EnzCheck® Pyrophosphatase Assay Kit.

[5] = substrate: CC[C@@H](O)CC(=O)O; experiment: as above; type: biochemical, Marinobacter aquaeolei; conditions: other: 0-10 mM 3-hydroxycarboxylate, 2 mM ATP, 0.1 mg/ml enzyme, pH 7.5
Method: as §1, §2, §3, §4, §5, §6

[6] = substrate: O=C(O)CCO; experiment: as above; type: biochemical, Marinobacter aquaeolei; conditions: other: 0-10 mM 3-hydroxycarboxylate, 2 mM ATP, 0.1 mg/ml enzyme, pH 7.5
Method: as §1, §2, §3, §4, §5, §6

(R,S)-3-hydroxybutyrate [7] = experiment: Propylene production from 3-hydroxybutyrate, M. aquaeolei enzyme and OleC proteins, GC-FID; type: biochemical; conditions: 50 mM (R,S)-3-hydroxybutyrate, 10 mM ATP, 2 mg/ml each enzyme, 18 hours at 37° C.
Method: The studied enzymes were produced and purified according to the procedure described in Example 1. The studied reaction was carried out under the following conditions
2 mg/ml purified AMP-dependent synthetase/ligase from M. aquaeolei
2 mg/ml purified OleC protein from Shewanella amazonensis or from Chloroflexus aurantiacus
Reaction volume was 0.3 ml.
For the no enzymes control, buffer was used in place of enzymes.
Controls reactions without ATP were realized in parallel.
The reaction mixtures were incubated in 2 ml sealed vials (Interchim) for 18 hours at 37° C. with shaking. Propylene production was analyzed by Gas Chromatography (GC) using Bruker 450-GC gas chromatograph equipped with Flame Ionization Detector (FID). Nitrogen was used as carrier gas with a flow rate of 6 ml/min. Volatile compounds were chromatographically separated on GS-Alumina column (30 m×0.53 mm ID) (Agilent) using an isothermal mode at 130° C. The enzymatic reaction product were identified by comparison with standard of propylene (Sigma-Aldrich), the retention time of propylene in these conditions was 1.57 min.

3-hydroxyisovalerate = experiment: Isobutene production from 3-hydroxyisovalerate, M. aquaeolei enzyme and OleC proteins, GC-FID; type: biochemical; conditions: 50 mM 3-hydroxyisovalerate, 10 mM ATP, 0.6 mg each enzyme in 0.3 ml, 18 hours at 37° C.
Method: The studied reaction was carried out under the following conditions
Reaction volume was 0.3 ml
0.6 mg of AMP-dependent synthetase/ligase from M. aquaeolei and 0.6 mg of OleC protein were added to 0.3 ml of reaction mixture. A reaction mixture containing only 0.6 mg of AMP-dependent synthetase/ligase from M. aquaeolei was used as reference. The assays were incubated in 2 ml sealed vials (Interchim) for 18 hours at 37° C. with shaking. Isobutene production was analyzed by Gas Chromatography (GC) using Bruker 450-GC gas chromatograph equipped with Flame Ionization Detector (FID). Nitrogen was used as carrier gas with a flow rate of 6 ml/min. Volatile compounds were chromatographically separated on GS-Alumina column (30 m×0.53 mm ID) (Agilent) using an isothermal mode at 130° C. The enzymatic reaction product were identified by comparison with standard of isobutene (Sigma-Aldrich), the retention time of isobutene in these conditions was 2.40 min.

B1: AMP-dependent synthetase/ligase from Burkholderia sp.: AMP-dependent synthetase and ligase of Burkholderia sp., SEQ ID NO: 4, Uniprot R4WRJ4 (protein)
chain: MTHSEEIMTTPGIYDEGLPKTAANFAVMTPLTFIERAASVYPNRPAVVHGDVRRTWSETYARTRRLASALAARGIGVGDTVAVMLPNTPEMVEAHFGVPMTGAVLNALNTRLDAATLAFMLTHGEAKAVLVDREFSDVMRRALESVPQKLLVIDVDDSQYAGAGERIGEIEYEALLASGDPAYEWTPPSDEWNAICLNYTSGTTGNPKGVVYHHRGAYTNAVSNILEWDMPAHAVYLWTLPMFHCNGWCFPWTIAARAGVNVCLRRIDAKTVFDLIRNEGVTHYCGAPIVQNMLVNAPDELKAGIAQKVNAMVAGAAPPAAMIEGMERMGFQLTHVYGLTEVYGPATVCAHQAEWSELDIGERARLNARQGVRYHLQDAVTVRDPDTMQLVPPDGETIGEIMFRGNIAMKGYLKNAAATEEAFRGGWFHTGDLAVAYPDGYVRIKDRSKDIIISGGENISSIEVEDVLYRHPAVLAVAVVAKPDARWGETPCAFVELKTGVHVSGEELIAHCKQHLAGFKVPRAIEFCELPKTSTGKIQKFELRKRAGSVTAIDV
modifications: Burkholderia sp. RPE64
Q: B1 was tested. Which “formation of 3-hydroxybutyryl-adenylate with ATP or ADP as co-substrate” value ((R,S)-3-hydroxybutyrate [1]) did it give?
A: Its value is “able to catalyze the formation of 3-hydroxybutyryl-adenylate by using ATP or ADP as co-substrate”.

B2: AMP-dependent synthetase/ligase from Marinobacter aquaeolei (Marinobacter nauticus VT8) (protein)
chain: MTSIFDQGLEPRDANYAVQSPIDFIERTASVYPDYPAIIHGAIRRTWAETYDRCLRLASALKGRGIGRGDTVAVMLPNIPAMVECHFGIPMIGAVLNTLNVRLDAEAIAFMLEHGEAKVVIADREFGQVIKDAVRHLEHKPLVIDVDDPEYGEGVQVSDLDYEAFLQEGDPQFQWSFPDNEWDAISLNYTSGTTGNPKGVVYHHRGAYINALGNQTVWSMDMHPVYLWTLPMFHCNGWCFPWTITAMAGTHVCLRRVDPEKILQLIHDHQVTHMCGAPIVLNALLNASPEAKAGIDHEVKSMTAGAAPPAQVIGSIEEMGIKVTHVYGLTEVYGPVTVCAWKSEWDELPLHDRAKIKARQGVRYHTLGGTMVADPNTMQPVPKDGKTIGEIFLRGNTVMKGYLKNPTATEEAFRGGWFHTGDLAVWHEDGYMEIKDRLKDIIISGGENISTIEVEDTLYRHPAVLEAAVVARPDEKWGETPCAFITLKPEAGDVSEDDIINFCREHLARFKVPKTVVFTELPKTSTGKIQKFVLRDQAKDLN
Q: Which Km [2] does the source give for B2 here?
A: The Km was 2 mM.

Q: What about the kcat [2] of the same molecule?
A: Its kcat is 0.03 s⁻¹.

Q: What about the Km [3] of the same molecule?
A: The Km was 10 mM.

Q: And the kcat [3]?
A: The kcat was 0.007 s⁻¹.

Q: And the Km [4]?
A: The Km was 3 mM.

Q: What about the kcat [4] of the same molecule?
A: Its kcat is 0.023 s⁻¹.

Q: What about the Km [5] of the same molecule?
A: The Km was 4 mM.

Q: And the kcat [5]?
A: The kcat was 0.012 s⁻¹.

Q: What about the Km [6] of the same molecule?
A: The Km was 5 mM.

Q: And the kcat [6]?
A: The kcat was 0.04 s⁻¹.

Q: What about the Propylene peak area ((R,S)-3-hydroxybutyrate [7]) of the same molecule?
A: Its Propylene peak area is 0 arbitrary units.

Q: What about the Isobutene peak area (3-hydroxyisovalerate) of the same molecule?
A: Its Isobutene peak area is 414 arbitrary units.

B3: acyl-CoA synthase from M. algicola: acyl-CoA synthetase from Marinobacter algicola, SEQ ID NO: 2, Uniprot A6EZ54 (protein)
chain: MNSIFDKGLEPTDANNATLTPLDFLARTASVYPEYPAVIHGATRRNWQQTYERCRRLASALADRGVGKGDTVAAMLPNIPPMLECHFGIPMLGAVLNALNTRLDAKAIAFMLEHGEAKVLIADREFGDVINEAVGMLDNPPQVIDVNDPEFSGAGTQVSDLDYDAFVASGDPAFDWQMPADEWDAISLCYTSGTTGNPKGVVYHHRGAYENAMGNQAVWSMGMHPVYLWTLPMFHCNGWCFPWTITAFAGTHVCLRKVEPEKILQLISEHKVSHMCGAPIVLNTLLGASEAAKSSFSHTVQAMTAGAAPPAKVIEAIENMGFRVTHVYGLTEVYGPVTVCAWKSEWDDLPVEDRARIKARQGVRYHTLAGMMVGDPETMEAVPKDGNTIGEIFLRGNTVMKGYLKNPKATEEAFRGGWFHTGDLAVWHADGYAEIKDRLKDIIISGGENISTIEVEDVLYRHPDILEAAVVARPDEKWGETPCAFVTLKPEAGEVSEDDIIAFCRERMAKFKVPKTIVFSELPKTSTGKIQKFVLRDDAKKL
modifications: Marinobacter algicola DG893
Q: How did the “formation of 3-hydroxybutyryl-adenylate with ATP or ADP as co-substrate” value ((R,S)-3-hydroxybutyrate [1]) turn out when B3 was run?
A: The value was “able to catalyze the formation of 3-hydroxybutyryl-adenylate by using ATP or ADP as co-substrate”.
